Peptide text beside a SMILES is read from it. * marks the point of attachment. Bz = O=C(c1ccccc1)*
Legend:
[1] = target: T1, yeast carboxypeptidase Y (CPD-Y), wild type (SEQ ID NO:32) (Saccharomyces cerevisiae, UniProt P00729); test: Aminolysis of ester/peptide substrates; KN(app) of nucleophile; assay type: biochemical; conditions: for KN(app): Table III (unit as in Tables I, II), ester substrate; for KN,app (H-Gly-NH2 as nucleophile): substance of the line is the substrate (leaving group phenylalanine or L-β-phenyllactic acid), enzyme not named, taken as CPD-Y
T1 construct: purchased Carlbiotech, Copenhagen, Denmark
T1 sequence (P00729 112-532): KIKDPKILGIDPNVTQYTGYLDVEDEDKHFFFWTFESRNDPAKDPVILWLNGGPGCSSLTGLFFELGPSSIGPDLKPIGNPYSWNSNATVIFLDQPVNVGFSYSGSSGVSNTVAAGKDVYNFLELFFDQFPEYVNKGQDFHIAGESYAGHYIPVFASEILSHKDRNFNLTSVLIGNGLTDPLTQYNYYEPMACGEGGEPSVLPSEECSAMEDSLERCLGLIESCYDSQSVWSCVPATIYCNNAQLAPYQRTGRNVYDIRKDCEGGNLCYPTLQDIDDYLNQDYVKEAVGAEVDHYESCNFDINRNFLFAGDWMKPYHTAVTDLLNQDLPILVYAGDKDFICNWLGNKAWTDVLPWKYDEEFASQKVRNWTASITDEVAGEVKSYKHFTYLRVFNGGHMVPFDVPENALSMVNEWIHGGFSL
Protocol: (§1) Aminolysis reactions were carried out in the following way. The nucleophile was dissolved in 50 mM Hepes, 5 mM EDTA and pH was adjusted to 7.5. Five (5) μl of substrate (8 mM FA-Ala-OBzl in methanol) was added to 190 μl nucleophile solution followed by 5 μl enzyme, resulting in a substrate concentration of 0.2 mM. For reactions carried out at pH 9.5, Hepes was replaced with Ches. During the reaction, 20 μl aliquots were removed from the reaction mixture and added to 50 μl 1% trifluoroacetic acid to quench the reaction. The reactant composition was determined by HPLC using a Waters HPLC equipped with a C-18 Waters Novapac 4μ reverse phase column and various gradients of acetonitrile in 0.1% trifluoroacetic acid. The separation was monitored at 302 nm allowing the direct quantification of the products from the integrated peak areas. The composition of the reaction mixture was determined at least twice during the reaction, the first time when 20-50% (preferably 35%) of the ester substrate had been consumed in the reaction and the second time when 50-90% (preferably 80%) of the substrate had been consumed. The products were collected and identified by amino acid analysis after acid hydrolysis using a Pharmacia Alpha Plus analyzer.
(§2) Further identification was obtained by co-chromatography of authentic standard compounds. The fraction of aminolysis (fa) was expressed as the ratio between the formed aminolysis product and the sum of all products being formed, i.e., unconsumed substrate was disregarded in the calculations. The KN(app), representing the nucleophile concentration at which fa is half the maximum value (a measure for the dissociation constant of the nucleophile), and famax (the highest possible fa obtained at saturation of the enzyme with nucleophile) were determined by fitting the values of fa obtained at a minimum of seven concentrations of nucleophile to a saturation. The value of fa obtained at the highest possible nucleophile concentration is designated fasat.
(§3) Aminolysis reactions were carried out in the following way. The nucleophile was dissolved in 50 mM HEPES, 5 mM EDTA and pH was adjusted to 7.5, 5 μl substrate (8 mM FA-Ala-OBzl or FA-Ala-Xaa-OH in methanol) was added to 190 μl nucleophile solution followed by 5 μl enzyme diluted in buffer to the appropriate concentration, resulting in a substrate concentration of 0.2 mM. During the reaction, 20 μl aliquots were removed from the reaction mixture and added to 50 μl 1% trifluoroacetic acid to quench the reaction. The reactant composition was determined by HPLC using a Waters HPLC equipped with a C-18 Waters Novapac 4μ reverse phase column and various gradients of acetonitrile in 0.1% trifluoroacetic acid. The separation was monitored at 302 nm allowing the direct quantification of the products from the integrated peak areas. The products were collected and identified by amino acid analysis after acid hydrolysis (Pharmacia Alpha Plus analyzer) and by co-chromatography of authentic standards. The fraction of aminolysis (fa) was expressed as the ratio between the formed aminolysis product and the sum of all products being formed, i.e. unconsumed substrate was disregarded in the calculations. The KN,app (a measure for the dissociation constant of the nucleophile) and famax (the highest possible fa obtained at saturation with nucleophile were determined by fitting the obtained fa values to the equation fa=famax /(1+KN,app /N).

[2] = target: T2, carboxypeptidase Y (CPD-Y) variant N51Q (Asn51 replaced with glutamine) (Saccharomyces cerevisiae, UniProt P00729, N162Q); test: Aminolysis; KN(app) of nucleophile; assay type: biochemical, yeast; conditions: Table V; amino acid nucleophile, FA-Ala-OBzl as substrate, pH 7.5
T2 construct: made in house; host or cells: S. cerevisiae W2579 (secreted)
T2 sequence (P00729 112-532 N162Q): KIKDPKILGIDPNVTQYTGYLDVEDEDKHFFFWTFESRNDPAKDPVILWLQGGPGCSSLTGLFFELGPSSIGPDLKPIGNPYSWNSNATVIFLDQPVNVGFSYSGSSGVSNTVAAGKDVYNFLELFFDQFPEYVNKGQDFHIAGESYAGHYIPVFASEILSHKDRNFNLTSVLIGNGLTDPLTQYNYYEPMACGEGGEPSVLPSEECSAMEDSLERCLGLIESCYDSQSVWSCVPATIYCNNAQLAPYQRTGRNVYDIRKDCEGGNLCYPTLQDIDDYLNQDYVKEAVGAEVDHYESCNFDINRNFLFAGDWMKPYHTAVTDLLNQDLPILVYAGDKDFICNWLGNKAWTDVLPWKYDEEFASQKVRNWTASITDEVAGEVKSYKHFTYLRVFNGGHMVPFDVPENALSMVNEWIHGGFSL
Protocol: as §1, §2, §3

[3] = substrate: CC(C)[C@H](NC(=O)[C@H](Cc1ccccc1)NC(=O)C=Cc1ccco1)C(=O)O; test: Hydrolysis of FA-Phe-Val-OH; assay type: biochemical, yeast; conditions: other: hydrolysis of FA-Phe-Val-OH

Row | estimated CPD-Y activity relative to wild type transformants (fold of wild type) (CBZ-Phe-Leu-OH) | estimated CPD-Y activity relative to wild type transformants (fold of wild type) (CBZ-Glu-Leu-OH) | estimated CPD-Y activity relative to wild type transformants (fold of wild type) (CBZ-His-Leu-OH) | estimated CPD-Y activity relative to wild type transformants (fold of wild type) (CBZ-Pro-Leu-OH) | estimated CPD-Y activity relative to wild type transformants (fold of wild type) (CBZ-Gly-Leu-OH) | estimated CPD-Y activity relative to wild type transformants (fold of wild type) (CBZ-Trp-Leu-OH) | estimated CPD-Y activity relative to wild type transformants (fold of wild type) (CBZ-Lys-Leu-OH) | estimated CPD-Y activity relative to wild type transformants (fold of wild type) (CBZ-Ser-Leu-OH) | Molecule | KN(app) ([1]; amino acid nucleophile) | also measured
1 | 1.2 | 1.4 | 1 | 0.6 | 1.1 | 1.1 | 4 | 1.3 | carboxypeptidase Y mutant 178Ala/215Ser/216Arg (enzyme) |  | 
2 | 2.8 | 2 | 1.3 | 0.9 | 0.7 | 2 | 4.4 | 0.7 | carboxypeptidase Y mutant 178Asn/215Ala/216Gly (enzyme) |  | 
3 |  | 1.1 | 1.7 | 0.3 | 0.9 | 1 | 6.9 | 0.5 | carboxypeptidase Y mutant 178Cys (enzyme) |  | 
4 |  |  |  |  |  |  |  |  | N[C@@H](CO)C(=O)O [H--Ser--OH, H-Ser-OH] | 310 ± 20 mM | 
5 | 0.9 | 1 | 1.1 | 1.2 | 0.8 | 1.5 | 3.6 | 1.1 | carboxypeptidase Y mutant 178His/215Pro/216Thr (enzyme) |  | 
6 | 0.9 | 1.2 | 1.1 | 1.2 | 0.8 | 1.7 | 3.1 | 1 | carboxypeptidase Y mutant 178His/215Thr/216Phe (enzyme) |  | 
7 |  |  |  |  |  |  |  |  | C[C@H](N)C(=O)O [H--Ala--OH, H-Ala-OH] | 83 ± 7 mM | Kn,app [2]: 250 ± 15 mM; Kn,app ([1]; Table V, amino acid nucleophile, FA-Ala-OBzl as substrate, pH 7.5): 83 ± 7 mM
8 |  |  |  |  |  |  |  |  | O=C(CNC(=O)c1ccccc1)N[C@@H](Cc1ccccc1)C(=O)O [Hippuryl-L-Phe-OH] (Bz-Gly-Phe-OH) |  | KN,app (H-Gly-NH2 as nucleophile) [1]: 0.63±0.06
9 |  |  |  |  |  |  |  |  | N[C@@H](Cc1c[nH]cn1)C(=O)O [H--His--OH, H-His-OH] | 87 ± 9 mM | 
10 | 0.8 | 0.8 | 0.8 | 0.5 | 0.3 | 0.5 | 4.6 | 0.3 | carboxypeptidase Y mutant 178Gly/340Ile/341Cys (enzyme) |  | 
11 | 1 | 1.1 | 1.1 | 1.6 | 0.8 | 0.9 | 5.3 | 0.4 | carboxypeptidase Y mutant 178Cys/215Thr/216Trp (enzyme) |  | 
12 |  |  |  |  |  |  |  |  | NCC(=O)O [H--Gly--OH, H-Gly-OH] | 1500 ± 50 mM | 
13 |  |  |  |  |  |  |  |  | O=C(CNC(=O)c1ccccc1)O[C@@H](Cc1ccccc1)C(=O)O [Hippuryl-L-β-Phenyllactic acid] |  | KN,app (H-Gly-NH2 as nucleophile) [1]: 0.47±0.05
14 |  |  |  |  |  |  |  |  | N[C@@H](Cc1ccccc1)C(=O)O [H--Phe--OH, H-Phe-OH] | 9.5 ± 1 mM | Kn,app [2]: 29 ± 1 mM
15 |  |  |  |  |  |  |  |  | NC(=O)CC[C@H](N)C(=O)O [H--Gln--OH, H-Gln-OH] | 150 ± 8 mM | 
16 |  |  |  |  |  |  |  |  | NCCCC[C@H](N)C(=O)O [H--Lys--OH, H-Lys-OH] | 190 ± 30 mM | 
17 |  |  |  |  |  |  |  |  | carboxypeptidase Y (CPD-Y) variant N51Q (Asn51 replaced with glutamine) (Saccharomyces cerevisiae S288C; N162Q) (protein, made in house; host or cells: S. cerevisiae W2579 (secreted)) KIKDPKILGIDPNVTQYTGYLDVEDEDKHFFFWTFESRNDPAKDPVILWLQGGPGCSSLTGLFFELGPSSIGPDLKPIGNPYSWNSNATVIFLDQPVNVGFSYSGSSGVSNTVAAGKDVYNFLELFFDQFPEYVNKGQDFHIAGESYAGHYIPVFASEILSHKDRNFNLTSVLIGNGLTDPLTQYNYYEPMACGEGGEPSVLPSEECSAMEDSLERCLGLIESCYDSQSVWSCVPATIYCNNAQLAPYQRTGRNVYDIRKDCEGGNLCYPTLQDIDDYLNQDYVKEAVGAEVDHYESCNFDINRNFLFAGDWMKPYHTAVTDLLNQDLPILVYAGDKDFICNWLGNKAWTDVLPWKYDEEFASQKVRNWTASITDEVAGEVKSYKHFTYLRVFNGGHMVPFDVPENALSMVNEWIHGGFSL |  | Km [3]: 85 µM; kcat [3]: 25 s⁻¹; kcat/Km [3]: 300000 M⁻¹ s⁻¹

From patent US5945329A, “Customized proteases” (Carlsberg A/S, priority 1997, dated 1999)
